Patent US12466853B2, “Selective targeting of apoptosis proteins by structurally-stabilized and/or cysteine-reactive NOXA peptides” (priority 2017, dated 2025)
Entries after “also recorded” stand apart in the source; their conditions may differ.

Key:
[1] = target: T1, BFL-1ΔC C4S/C19S / FITC-BID BH3 (Homo sapiens, UniProt Q16548, C19S/C4S); assay: Competitive fluorescence polarization binding assay, BFL-1ΔC C4S/C19S; conditions: fluorescence polarization competition
T1 construct: Recombinant anti-apoptotic BFL-1ΔC (aa 1-151) and its cysteine to serine mutants were cloned into PET17b; made in house; host or cells: Escherichia coli LOBSTR BL21(DE3)
T1 sequence (Q16548 1-151 C4S/C19S): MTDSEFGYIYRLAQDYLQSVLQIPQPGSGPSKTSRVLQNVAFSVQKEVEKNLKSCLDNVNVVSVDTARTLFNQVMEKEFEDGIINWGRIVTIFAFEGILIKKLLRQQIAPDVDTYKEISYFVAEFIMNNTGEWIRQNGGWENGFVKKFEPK
Experimental: (§1) Fluorescence polarization (FP) assays were performed as previously described (Pitter et al., 2008 (supra)). Briefly, direct binding curves were first generated by FITC-BID BH3 (25 nM) with serial dilutions of anti-apoptotic protein, and FP was measured at 5 min on a SpectraMax M5 microplate reader (Molecular Devices). For competition assays, a serial dilution of acetylated or warhead-bearing NOXA SAHB was added to the indicated recombinant protein at ˜EC75 concentration, as determined by the direct binding assay. FITC-BID BH3 (25 nM) was then added and fluorescence polarization was measured at equilibrium. IC50 values were calculated by nonlinear regression analysis of competitive binding curves using PRISM software (GraphPad).

[2] = target: T2, BCL-XLΔC / FITC-BID BH3 (Homo sapiens, UniProt Q07817); assay: Competitive fluorescence polarization binding assay, BCL-XLΔC
T2 construct: Recombinant anti-apoptotic BCL-XLΔC (aa 1-212) and MCL-1ΔNΔC (aa 172-329); GST (N, cleaved yes); made in house; host or cells: Escherichia coli BL21(DE3)
Experimental: as §1

[3] = target: T3, native BFL-1 (Homo sapiens, UniProt Q16548); assay: BFL-1 targeting in U937 lysates (streptavidin pulldown, BFL-1 western); format: binding; conditions: biotinylated SAHB
T3 construct: endogenous in cells; host or cells: A375P melanoma cells (A10); U937 AML cells (A12), lysates
T3 sequence (Q16548 1-175): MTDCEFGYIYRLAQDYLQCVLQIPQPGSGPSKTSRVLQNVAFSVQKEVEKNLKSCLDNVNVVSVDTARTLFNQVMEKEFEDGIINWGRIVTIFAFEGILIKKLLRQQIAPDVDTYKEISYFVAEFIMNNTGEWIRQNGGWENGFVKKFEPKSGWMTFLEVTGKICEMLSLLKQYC
Description: We confirmed that both of our lead constructs could covalently crosslink to full-length BFL-1 protein, which bears a C-terminal helix that could potentially compete with D-NA-NOXA SAHBs for interaction at the canonical BH3-binding pocket in cancer cells. We generated recombinant full-length BFL-1 and expressed HA-tagged full-length BFL-1 in 293T cells, and then conducted crosslinking analyses in vitro and in treated cells, respectively.
Cultured A375P and U937 cells were trypsinized or harvested, respectively, washed with PBS, and lysed by incubating with 1% CHAPS lysis buffer (1% CHAPS, 150 mM NaCl, 50 mM Tris pH 7.4, 100 μM DTT). The protein concentrations of the soluble fraction were measured using a BCA kit according to the manufacturer's instructions (Thermo Scientific). Lysate samples (1 mg) were incubated with vehicle or C-terminally biotinylated NOXA SAHBs (30 μM) overnight in 1% CHAPS lysis buffer at 4° C. Biotin capture was accomplished by incubating the mixture with high-capacity SA agarose (Thermo Scientific) for 2 hours at 4° C., followed by centrifugation and washing the pelleted beads three times with lysis buffer (1 mL). Bead-bound proteins were eluted by boiling in 10% SDS containing 10 mg/mL biotin for 10 minutes and then subjected to electrophoresis and western blotting using BFL-1 (Abcam, #125259) and MCL-1 (Rockland #600-401-394S) antibodies.

[4] = tested on: U937 cells; assay: LDH release assay, U937 cells; format: cell-based, human; conditions: 30 min and 4 hr, listed as D-NA-NOXA SAHB-15 R31E
Experimental: After overnight incubation for A375P cells, or immediately upon plating for U937 cells, the cells were treated with the indicated concentrations of D-NA-NOXA SAHBs in DMEM or RPMI supplemented with 5% FBS for the indicated time period (30 min, 4 h). After plate centrifugation at 1,500 rpm (Thermo Scientific Sorvall Four-Place Swinging Bucket Rotor [75006445]; 478×g) for 5 min at 4° C., LDH release was quantified by transferring 100 μL of cell-culture medium to a clear plate (Corning), incubating with 100 μL of LDH reagent (Roche) for 30 min while shaking, and then measuring absorbance at 490 nm on a microplate reader (Spectramax M5, Molecular Devices).

[5] = target: T4, HA-BFL-1ΔC C4S/C19S / tBID (Homo sapiens, UniProt Q16548, C19S/C4S); assay: BFL-1/BH3 complex disruption: competition with tBID in 293T lysates; format: binding; conditions: anti-HA immunoprecipitation
T4 construct: Recombinant anti-apoptotic BFL-1ΔC (aa 1-151) and its cysteine to serine mutants were cloned into PET17b; expressed in transfected cells; host or cells: 293T (lysate)
T4 sequence (Q16548 1-151 C4S/C19S): T1 sequence (Q16548 1-151 C4S/C19S)
Experimental: (§2) To evaluate the capacity of biotinylated SAHBs to compete with tBID for interactions with BFL-1 and MCL-1, 293T cells were transfected with either HA-BFL-1ΔC C4S/C19S or FLAG-MCL-1 in the p3XFLAG-CMV-10 vector (Sigma) as above. After 24 hr, cells were trypsinized, washed with PBS, lysed in 1% CHAPS buffer, and the supernatant collected for protein concentration determination by BCA kit. Lysate samples (0.5 mg) were incubated with 0.25 μM recombinant tBID (R&D Systems) and 5 μM biotinylated NOXA SAHBs for 6 h at RT. The mixtures were then subjected to HA or FLAG immunoprecipitation, followed by western analysis using 1:1000 dilutions of HA (Sigma Aldrich, #12CA5), FLAG (Sigma-Aldrich, F7425), and BID (Santa Cruz sc-11423) antibodies.

[6] = tested on: KG-1 cells; assay: Cell viability (CellTiter-Glo) and CalcuSyn synergy, KG-1; format: cell-based, human; conditions: KG-1 AML cells
Experimental: U937, MV4;11, OCI-AML-3, Jurkat, and KG-1 cells cultured in RPMI containing 10% FBS and penicillin-streptomycin were plated in 96-well plates (5×10^3 cells per well) and, after overnight incubation, treated with the indicated concentrations of D-NA-NOXA SAHB and/or AZD0156, Ku-60019, Ku-55933, AZD7762, olaparib, or S63845 (all from Selleck Chemicals) in RPMI supplemented with 5% FBS for the indicated durations. Cell viability and caspase-3/7 activation was measured using CellTiter-Glo and Caspase-Glo 3/7 chemiluminescence reagents (Promega), respectively, and luminescence was detected by a Spectramax M5 microplate reader. Synergy of drug interactions was calculated using the CalcuSyn software (Biosoft).

[7] = tested on: MV4;11 cells; assay: Cell viability (CellTiter-Glo) and CalcuSyn synergy, MV4;11; conditions: MV4;11 cells (not dependent on BFL-1, dependent on MCL-1)
Experimental: (§3) Cell viability and caspase-3/7 activation was measured using CellTiter-Glo and Caspase-Glo 3/7 chemiluminescence reagents (Promega), respectively, and luminescence was detected by a Spectramax M5 microplate reader. Synergy of drug interactions was calculated using the CalcuSyn software (Biosoft).

[8] = tested on: U937 cells; assay: Cell viability (CellTiter-Glo) and CalcuSyn synergy, U937; conditions: U937 cells (BFL-1-dependent)
Experimental: as §3

[9] = target: T5, FLAG-MCL-1 / tBID (Homo sapiens, UniProt Q07820); assay: MCL-1/tBID complex disruption in 293T lysates; format: binding; conditions: FLAG immunoprecipitation
T5 construct: expressed in transfected cells; host or cells: 293T (lysate)
Experimental: as §2

T2 sequence (Q07817 1-212, stated change not applied): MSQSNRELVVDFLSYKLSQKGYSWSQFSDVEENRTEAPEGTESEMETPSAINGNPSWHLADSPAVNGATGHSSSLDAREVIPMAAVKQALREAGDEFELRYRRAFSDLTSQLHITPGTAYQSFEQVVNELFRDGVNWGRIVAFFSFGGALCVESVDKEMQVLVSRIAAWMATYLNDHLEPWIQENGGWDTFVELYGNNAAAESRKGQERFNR
T5 sequence (Q07820 whole entry): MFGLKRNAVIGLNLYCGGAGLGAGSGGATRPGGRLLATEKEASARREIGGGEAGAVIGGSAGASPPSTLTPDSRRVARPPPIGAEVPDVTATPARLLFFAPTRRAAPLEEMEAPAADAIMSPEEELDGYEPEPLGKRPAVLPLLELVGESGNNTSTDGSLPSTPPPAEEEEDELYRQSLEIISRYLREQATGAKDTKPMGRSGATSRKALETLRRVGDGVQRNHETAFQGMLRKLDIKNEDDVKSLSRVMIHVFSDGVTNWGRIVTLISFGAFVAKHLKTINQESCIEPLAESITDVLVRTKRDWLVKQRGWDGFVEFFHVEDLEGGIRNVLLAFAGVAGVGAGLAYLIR

## JAT8LREFGDXLNFRQ [D-NA-NOXA-15 R31E]
[1]
  disruption of BFL-1ΔC C4S/C19S / FITC-BID BH3 interaction: displays the ability to disrupt the interaction
[2]
  competition for FITC-BID BH3 binding to BCL-XLΔC: neither Ac- nor D-NA-NOXA-15 R31E is able to compete
[3]
  targeting of native BFL-1: more effective binder of native BFL-1 protein between the two constructs
[4]
  LDH release (non-specific cell membrane-lytic activity): no LDH release; also recorded: no non-specific cell membrane-lytic activity
[5]
  competition with tBID for HA-BFL-1ΔC C4S/C19S interaction: effectively competes with tBID
[6]
  cytotoxicity, single agent: dose-responsive cytotoxicity
[7]
  cytotoxicity, single agent: essentially insensitive
[8]; listed as D-NA-NOXA SAHB-15 R31E
  cytotoxicity, single agent: responsive
[8]; listed as NOXA-15 R31E SAHB
  cytotoxicity, single agent: selective cytotoxicity
[9]
  dissociation of FLAG-MCL-1/tBID interaction: neither D-NA- nor Ac-NOXA15 R31E is able to dissociate the interaction
